Drawing on patent publication US20200071417A1 (MARENGO THERAPEUTICS, published 2020), this text covers EC50 for one molecule.

For assay [1], the target named is T1, mouse CCR2 (mouse, UniProt P51683 1-373).
T1 construct: whole, on cells; the mouse protein was used in the assays; also called mCCR2
Kind of assay: flow cytometry on transiently transfected ExpiCHO cells expressing mouse CCR2 only. The method, then: (§1) ExpiCHO cells were transiently transfected with mouse CCR2, mouse CSF1R, or both mouse CCR2 and CSF1R, according to the manufacturer's instructions. In brief, the transfections were performed with ExpiCHO cells at a cell density of 5.6-6.3×10⁶ cells/mL and at least 95% viability. For each transfection, 25 μg of DNA was diluted with 1 mL of OptiPro SFM (Gibco 12309050) and filtered using spin-X centrifuge tube filters (Corning 8160). A solution of 920 μL of OptiPro and 80 μL of expifectamine was added to the filtered DNA, incubated for 1 minute at room temperature, and then added to the cells. On day 1 of the transfection, the cells were enhanced using 150 μL of ExpiCHO enhancer.
(§2) On day 2 of the transfection, the cells were washed with PBS containing 1% BSA (Sigma) and used to set 96-well V-bottom plates (Biotix AP-0350-9CVS) with 100,000 cells/well. UniTI-01 was added to the cells in serial dilutions and incubated for 1 hour at 4° C. The plates were washed twice with PBS containing 1% BSA. […] The plates were read on a CytoFLEX S (Beckman Coulter). Data were calculated as the median fluorescence intensity of the PE-positive population vs. the median fluorescence intensity of the PE-negative population. The data was normalized for the percent of total median fluorescence intensity. […]

The target of assay [2] is T2, mouse CSF1R (mouse, UniProt P09581 20-977).
T2 construct: whole, on cells; the mouse protein was used in the assays; also called mCSF1R
T2 sequence (looked up): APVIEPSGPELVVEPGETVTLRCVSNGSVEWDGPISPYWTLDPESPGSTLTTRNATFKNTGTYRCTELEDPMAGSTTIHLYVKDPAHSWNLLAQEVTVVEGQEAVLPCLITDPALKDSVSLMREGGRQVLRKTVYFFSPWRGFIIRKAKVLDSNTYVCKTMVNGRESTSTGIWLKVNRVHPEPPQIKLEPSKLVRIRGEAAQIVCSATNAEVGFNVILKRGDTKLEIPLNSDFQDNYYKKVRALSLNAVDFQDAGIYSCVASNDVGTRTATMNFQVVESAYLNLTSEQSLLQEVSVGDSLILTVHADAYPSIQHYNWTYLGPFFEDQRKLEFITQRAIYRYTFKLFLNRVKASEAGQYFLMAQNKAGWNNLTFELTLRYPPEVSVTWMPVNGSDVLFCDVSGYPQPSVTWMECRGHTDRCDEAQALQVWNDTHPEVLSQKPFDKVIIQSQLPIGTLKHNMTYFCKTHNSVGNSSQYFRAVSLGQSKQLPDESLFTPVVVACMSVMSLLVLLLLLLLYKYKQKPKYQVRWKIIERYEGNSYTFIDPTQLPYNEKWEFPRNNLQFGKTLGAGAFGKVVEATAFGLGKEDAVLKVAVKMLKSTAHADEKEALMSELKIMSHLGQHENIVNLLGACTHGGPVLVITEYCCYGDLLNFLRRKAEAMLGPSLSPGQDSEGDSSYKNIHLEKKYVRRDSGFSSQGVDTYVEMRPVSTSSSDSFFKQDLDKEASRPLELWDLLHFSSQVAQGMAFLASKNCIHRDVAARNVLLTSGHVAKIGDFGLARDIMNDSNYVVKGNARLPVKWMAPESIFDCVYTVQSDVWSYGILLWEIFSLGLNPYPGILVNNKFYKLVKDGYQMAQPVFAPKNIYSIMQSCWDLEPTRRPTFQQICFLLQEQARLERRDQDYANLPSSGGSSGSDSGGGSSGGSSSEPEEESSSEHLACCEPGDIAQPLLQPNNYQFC
Kind of assay: flow cytometry on transiently transfected ExpiCHO cells expressing mouse CSF1R only. On the procedure:
as §1, §2
(A flow cytometer gives signals particle by particle.)

In assay [3] the target is T3, mouse CCR2 and mouse CSF1R co-expressed on the same ExpiCHO cells (mouse, UniProt P51683 1-373; P09581 20-977).
T3 construct: whole, on cells; also called both mCCR2 and mCSF1R; CCR2 and CSF1R double positive cells
Kind of assay: flow cytometry on transiently transfected ExpiCHO cells expressing both mouse CCR2 and mouse CSF1R. The method, then: as §1, §2

What is called EC50 is the concentration giving half of the maximal effect. Higher therefore signals a less potent agent.

T3 sequence (P51683 whole entry, one chain of several): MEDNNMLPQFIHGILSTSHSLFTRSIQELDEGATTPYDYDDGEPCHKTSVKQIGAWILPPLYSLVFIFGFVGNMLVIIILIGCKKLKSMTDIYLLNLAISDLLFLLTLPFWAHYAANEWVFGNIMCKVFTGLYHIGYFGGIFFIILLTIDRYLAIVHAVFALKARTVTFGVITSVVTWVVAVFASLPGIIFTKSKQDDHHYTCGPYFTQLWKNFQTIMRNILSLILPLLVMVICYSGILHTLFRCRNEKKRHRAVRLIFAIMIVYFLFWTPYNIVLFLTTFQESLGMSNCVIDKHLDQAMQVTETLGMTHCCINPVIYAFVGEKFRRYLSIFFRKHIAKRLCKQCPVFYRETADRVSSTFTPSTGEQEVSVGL
T1 sequence (P51683 whole entry): as the sequence (P51683 whole entry, one chain of several) above

B1: UniTI-01 (multispecific molecule #1), anti-CCR2/anti-CSF1R bispecific antibody (bispecific antibody)
heavy 1: QVQLQESGPGLVQPSQTLSLTCTVSGFSLTDFSVHWVRQPPGKGLEWMGRIRSEGNTDYNSALKSRLSISRDTSKSQVFLKMNSLQTEDTAIYFCTRGDILGFGYWGQGVMVTVSSAQTTAPSVYPLAPGCGDTTSSTVTLGCLVKGYFPEPVTVTWNSGALSSDVHTFPAVLQSGLYTLTSSVTSSTWPSQTVTCNVAHPASSTKVDKKVERRTIKPCPPCKCPAPNLLGGPSVFIFPPKIKDVLMISLSPIVTCVVVDVSEDDPDVQISWFVNNVEVHTAQTQTHREDYNSTLRVVSALPIQHQDWMSGKEFKCKVNNKDLPAPIERTISKPKGSVRAPQVYVLPPCEEEMTKKQVTLWCMVTDFMPEDIYVEWTNNGKTELNYKNTEPVLDSDGSYFMYSKLRVEKKNWVERNSYSCSVVHEGLHNHHTTKSFSRTPGK
light 1: DIVMTQSPLSVSVTPGESASISCRSSKSLLHFKGITFVYWYLQKPGQSPQLLIFRMSSLASGVPDRFSGSGSETDFTLKISRVEAEDVGTYYCGQLLENPYTFGAGTKLELKRADAAPTVSIFPPSMEQLTSGGATVVCFVNNFYPRDISVKWKIDGSEQRDGVLDSVTDQDSKDSTYSMSSTLSLTKVEYERHNLYTCEVVHKTSSSPVVKSFNRNEC
heavy 2: QVQLQQSGAELVKPGSSVKISCKASGYTFTSNFMHWIKQQPGNGLEWIGWIYPGDGDTEYNQKFNGKATLTADKSSSTAYMQLSSLTSEDSAVYFCAVNYGGYVLDAWGQGASVTVSSAETTAPSVYPLAPGTALKSNSMVTLGCLVKGYFPEPVTVTWNSGALSSGVHTFPAVLQSGLYTLTSSVTVPSSTWSSQAVTCNVAHPASSTKVDKKIVPRECNTIKPCPPCKCPAPNLLGGPSVFIFPPKIKDVLMISLSPIVTCVVVDVSEDDPDVQISWFVNNVEVHTAQTQTHREDYNSTLRVVSALPIQHQDWMSGKEFKCKVNNKDLPAPIERTISKPKGSVRAPQVCVLPPPEEEMTKKQVTLSCAVTDFMPEDIYVEWTNNGKTELNYKNTEPVLDSDGSYFMVSKLRVEKKNWVERNSYSCSVVHEGLHNHHTTKSFSRTPGK
light 2: EIVLTQSPTTMAASPGEKVTITCRASSSTNYMSWYQQKSGASPKPWIYETSKLASGVPDRFSGSGSGTSYSFTISSMETEDAATYYCHQWSSTPLTFGSGTKLEIKRADAAPTVSIFPPSMEQLTSGGATVVCFVNNFYPRDISVKWKIDGSEQRDGVLDSVTDQDSKDSTYSMSSTLSLTKVEYERHNLYTCEVVHKTSSSPVVKSFNRNEC
notes: Knob-in-hole heterodimer with one anti-CCR2 arm and one anti-mCSF1R arm
Regarding B1, the EC50 in assay [1] was 15 nM; in assay [2], 1 nM; in assay [3] it was 0.4 nM.
